Starred links: 1 amine or outer side, 2 acyl side, 3 side chain; linkers in the order of their positions; H or OH if unused. Positions of bridges follow the written chain, without caps; N, C: chain ends. Non-standard residues stand in square brackets, D forms with d. Primed or numbered codes have the meaning given here. No end group written: not given here. *: point of attachment. PyrS2(3) = (S)-3-amino-1-((pent-4-en-1-yloxy)carbonyl)pyrrolidine-3-carboxylic acid, stapling residue, C=CCCCOC(=O)N1CC[C@@](N[*:1])(C(=O)[*:2])C1; PyrS2″ = (S)-3-amino-1-((pent-4-en-1-yloxy)carbonyl)pyrrolidine-3-carboxylic acid (stapling residue), C=CCCCOC(=O)N1CC[C@@](N[*:1])(C(=O)[*:2])C1; B5(18) = 2,2-bis(4-pentenyl)glycine (2-amino-2-(pent-4-en-1-yl)hept-6-enoic acid), stitching residue, C=CCCCC(CCCC=C)(N[*:1])C(=O)[*:2]; B5(4) = 2,2-bis(4-pentenyl)glycine = 2-amino-2-(pent-4-en-1-yl)hept-6-enoic acid (stitching residue), C=CCCCC(CCCC=C)(N[*:1])C(=O)[*:2]; B5(21) = 2-amino-2-(pent-4-en-1-yl)hept-6-enoic acid, bis(4-pentenyl)glycine (stitching residue), C=CCCCC(CCCC=C)(N[*:1])C(=O)[*:2]; TfeGA = (S)-2-amino-3-((carboxymethyl)(2,2,2-trifluoroethyl)amino)propanoic acid, O=C([C@H](CN(CC(=O)[*:3])CC(F)(F)F)N[*:1])[*:2]; PyrS2 = (S)-3-amino-1-((pent-4-en-1-yloxy)carbonyl)pyrrolidine-3-carboxylic acid, C=CCCCOC(=O)N1CC[C@@](N[*:1])(C(=O)[*:2])C1; TriAzDap = Dap whose side chain is a 1H-1,2,3-triazol-1-yl bearing the bracketed 4-substituent; Phe(3-COOH) = N[C@@H](Cc1cccc(C(=O)O)c1)C(=O)O; Phe(2-CF3) = N[C@@H](Cc1ccccc1C(F)(F)F)C(=O)O; Phe(3,4-F2) = N[C@@H](Cc1ccc(F)c(F)c1)C(=O)O; Phe(2-Cl) = N[C@@H](Cc1ccccc1Cl)C(=O)O; Bta = N[C@@H](Cc1csc2ccccc12)C(=O)O; αAllylPro = C=CC[C@@]1(C(=O)O)CCCN1; tBuAla = CC(C)(C)C[C@H](N)C(=O)O; 3Thi = N[C@@H](Cc1ccsc1)C(=O)O; MorphCH2 = C1CN(C*)CCO1
B1: I-1418 (peptide)
peptide: Ac-[αAllylPro]DL[B5(4)]DDAAFL[PyrS2″][Phe(2-Cl)][Bta]L-NH2
modifications: staple 1-4, 4-11; also: staple isomer composition of earlier HPLC peak
notes: Stapled peptide; staple isomer composition of the earlier HPLC peak

These binders were tested against T1, Bcat-Halo (UniProt P35222 1-781) (assay: cell-based or functional assay).
T1 sequence (looked up): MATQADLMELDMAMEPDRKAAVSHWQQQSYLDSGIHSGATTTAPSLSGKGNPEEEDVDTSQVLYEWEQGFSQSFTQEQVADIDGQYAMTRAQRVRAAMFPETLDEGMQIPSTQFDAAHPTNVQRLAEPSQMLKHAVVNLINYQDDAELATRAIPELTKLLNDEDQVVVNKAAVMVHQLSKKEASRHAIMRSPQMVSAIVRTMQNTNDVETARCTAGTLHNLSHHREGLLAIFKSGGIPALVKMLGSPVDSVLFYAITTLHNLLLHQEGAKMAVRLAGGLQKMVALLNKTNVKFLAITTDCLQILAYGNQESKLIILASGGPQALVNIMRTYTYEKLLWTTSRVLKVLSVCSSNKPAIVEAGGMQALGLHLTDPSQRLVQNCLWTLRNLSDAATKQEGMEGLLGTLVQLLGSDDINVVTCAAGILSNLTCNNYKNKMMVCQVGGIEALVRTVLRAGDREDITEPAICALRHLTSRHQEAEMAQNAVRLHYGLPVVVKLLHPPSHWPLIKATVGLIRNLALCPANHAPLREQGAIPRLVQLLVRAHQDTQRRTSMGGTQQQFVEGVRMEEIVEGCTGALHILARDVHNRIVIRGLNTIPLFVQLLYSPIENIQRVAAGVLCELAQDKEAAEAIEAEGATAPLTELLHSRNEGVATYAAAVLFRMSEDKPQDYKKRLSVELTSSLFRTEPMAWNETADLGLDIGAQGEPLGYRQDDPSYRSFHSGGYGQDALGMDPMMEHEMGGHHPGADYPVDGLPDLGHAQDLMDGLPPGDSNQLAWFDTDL

Point of comparison: Ac-[αAllylPro]D[tBuAla][B5(4)]DDAAFL[PyrS2][3Thi][Phe(3,4-F2)]Q-NH2 (staple 1-4, 4-11) [I-1427], “NanoBRET Abs IC50” value 30.4 µM. Against it:
- B1 — not separable, > 20 µM
- Ac-[αAllylPro]D[tBuAla][B5(4)]DDAAFL[PyrS2][3Thi][Phe(3,4-F2)]S-NH2 (staple 1-4, 4-11) [I-1428] — within 1.5-fold, 40.2 µM
- Ac-[αAllylPro]D[tBuAla][B5(4)]DDAAFL[PyrS2][3Thi]WS-NH2 (staple 1-4, 4-11) [I-1432] — 2.1-fold lower, 14.5 µM
- Ac-[αAllylPro]DS[B5(21)]DDAAFL[PyrS2″][3Thi][Bta]L-NH2 (staple 1-4, 4-11) [I-1414] — not separable, > 20 µM
- Ac-[αAllylPro]D[tBuAla][B5(4)]DDAAFL[PyrS2][3Thi]WQ-NH2 (staple 1-4, 4-11) [I-1431] — 2.1-fold lower, 14.6 µM

The binders below were run against T2, B-cat-Halo (beta-catenin HaloTag NanoBRET construct expressed in HEK293 cells) (UniProt P35222 1-781) (assay: cell-based or functional assay).
T2 sequence (looked up): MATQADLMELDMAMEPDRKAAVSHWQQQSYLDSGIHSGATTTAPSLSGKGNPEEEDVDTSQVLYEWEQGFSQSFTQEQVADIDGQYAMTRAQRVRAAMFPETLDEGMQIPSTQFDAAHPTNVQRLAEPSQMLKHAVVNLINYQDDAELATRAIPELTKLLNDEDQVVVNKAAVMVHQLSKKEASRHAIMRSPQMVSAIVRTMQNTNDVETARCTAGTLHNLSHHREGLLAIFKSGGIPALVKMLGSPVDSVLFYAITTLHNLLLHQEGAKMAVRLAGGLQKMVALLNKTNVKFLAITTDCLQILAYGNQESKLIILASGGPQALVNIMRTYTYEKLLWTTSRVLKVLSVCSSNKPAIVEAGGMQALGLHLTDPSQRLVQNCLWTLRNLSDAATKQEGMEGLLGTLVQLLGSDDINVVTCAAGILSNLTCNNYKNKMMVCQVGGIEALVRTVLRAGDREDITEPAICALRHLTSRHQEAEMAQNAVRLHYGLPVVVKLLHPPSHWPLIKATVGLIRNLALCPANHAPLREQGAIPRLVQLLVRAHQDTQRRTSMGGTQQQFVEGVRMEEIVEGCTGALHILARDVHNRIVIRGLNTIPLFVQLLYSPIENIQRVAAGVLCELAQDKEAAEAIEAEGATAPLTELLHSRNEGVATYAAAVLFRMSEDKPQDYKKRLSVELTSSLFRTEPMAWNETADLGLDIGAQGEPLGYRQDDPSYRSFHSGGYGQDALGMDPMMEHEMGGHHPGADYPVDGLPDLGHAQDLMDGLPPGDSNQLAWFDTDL

Point of comparison: Ac-[αAllylPro]D[tBuAla][B5(18)]D[TfeGA]AAF[TriAzDap](MorphCH2)[PyrS2(3)][3Thi][Bta]Q-NH2 (staple 1-4, 4-11; not fully specified) [I-1867], “NanoBRET Abs IC50” value 16.4 µM. Against it:
- Ac-[αAllylPro]D[tBuAla][B5(18)]D[TfeGA]AAF[TriAzDap](SO2MorphCH2)[PyrS2(3)][3Thi][Bta]Q-NH2 (staple 1-4, 4-11; not fully specified) [I-1868] — 2.4-fold higher, 39.6 µM
- Ac-[αAllylPro]D[tBuAla][B5(18)]D[TfeGA]AAF[TriAzDap](CH2Ppz)[PyrS2(3)][3Thi][Bta]Q-NH2 (staple 1-4, 4-11; not fully specified) [I-1864] — higher, > 20 µM
- Ac-[αAllylPro]D[tBuAla][B5(18)]D[TfeGA]AAF[TriAzDap](CH2Ppz)[PyrS2(3)][3Thi][Bta]Q-NH2 (staple 1-4, 4-11; not fully specified) [I-1863] — 2.3-fold higher, 37.4 µM
- Ac-[αAllylPro]D[tBuAla][B5(18)]D[TfeGA]AAF[TriAzDap](MorphCH2)[PyrS2(3)][3Thi][Bta]Q-NH2 (staple 1-4, 4-11; not fully specified) [I-1865] — higher, > 20 µM
- Ac-[αAllylPro]D[tBuAla][B5(18)]D[TfeGA]AAF[TriAzDap](MorphCH2)[PyrS2(3)][3Thi][Bta]Q-NH2 (staple 1-4, 4-11; not fully specified) [I-1866] — higher, > 20 µM

What follows are binders tested against T3, beta-catenin (in DLD1 TCF/LEF luciferase reporter cells) (UniProt P35222 1-781) (assay: cell-based or functional assay).
T3 sequence (looked up): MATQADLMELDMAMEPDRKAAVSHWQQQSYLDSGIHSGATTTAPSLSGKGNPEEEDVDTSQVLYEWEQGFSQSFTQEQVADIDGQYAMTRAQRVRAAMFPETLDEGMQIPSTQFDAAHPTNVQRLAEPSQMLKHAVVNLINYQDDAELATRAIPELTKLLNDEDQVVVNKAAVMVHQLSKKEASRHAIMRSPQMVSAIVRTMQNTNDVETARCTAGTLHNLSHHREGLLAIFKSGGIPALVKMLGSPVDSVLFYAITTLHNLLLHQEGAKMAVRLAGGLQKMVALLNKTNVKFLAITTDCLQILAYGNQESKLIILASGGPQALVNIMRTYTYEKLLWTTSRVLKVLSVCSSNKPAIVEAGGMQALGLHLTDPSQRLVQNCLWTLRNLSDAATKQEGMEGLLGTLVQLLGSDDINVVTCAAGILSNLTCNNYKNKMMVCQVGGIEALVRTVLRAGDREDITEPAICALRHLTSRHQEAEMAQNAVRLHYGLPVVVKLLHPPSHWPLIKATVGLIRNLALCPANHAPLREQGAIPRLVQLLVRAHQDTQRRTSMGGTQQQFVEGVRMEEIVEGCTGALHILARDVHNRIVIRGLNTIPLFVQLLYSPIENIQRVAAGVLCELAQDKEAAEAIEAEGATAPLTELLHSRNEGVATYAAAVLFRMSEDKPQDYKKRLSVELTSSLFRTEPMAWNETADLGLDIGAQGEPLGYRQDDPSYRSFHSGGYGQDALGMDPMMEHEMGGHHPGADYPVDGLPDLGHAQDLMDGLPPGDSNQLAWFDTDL

In the case of [αAllylPro]D[tBuAla][B5(4)]D[Phe(3-COOH)]AAFF[PyrS2″][Phe(2-CF3)][Bta]Q-NH2 (staple 1-4, 4-11) [I-1341], the “DLD1 4% Abs IC50” value is reported as 3.2 µM.

Source: US20240116985A1 (published 2024)
